According to patent EP4717714A1 (Shanghai Junshi Biosciences Co., Ltd., dated 2026):

B1: Bispecific antibody molecule 23 (bispecific antibody, human IgG4 S228P, kappa)
light: DVVMTQSPLSLPVTLGQPASISCRSSQSIVHSNGNTYLEWYLQKPGQSPQLLIYKVSNRFSGVPDRFSGSGSGTDFTLKISRVEAEDVGVYYCFQGSHVPLTFGQGTKLEIKRTVAAPSVFIFPPSDEQLKSGTASVVCLLNNFYPREAKVQWKVDNALQSGNSQESVTEQDSKDSTYSLSSTLTLSKADYEKHKVYACEVTHQGLSSPVTKSFNRGEC
heavy: not shown
notes: expressed in CHO-K1; also called Antibody 23; antibody 23 (IgG4)
B2: Bispecific antibody molecule 24 (bispecific antibody, human IgG4 S228P, kappa)
light: DVVMTQSPLSLPVTLGQPASISCRSSQSIVHSNGNTYLEWYLQKPGQSPQLLIYKVSNRFSGVPDRFSGSGSGTDFTLKISRVEAEDVGVYYCFQGSHVPLTFGQGTKLEIKRTVAAPSVFIFPPSDEQLKSGTASVVCLLNNFYPREAKVQWKVDNALQSGNSQESVTEQDSKDSTYSLSSTLTLSKADYEKHKVYACEVTHQGLSSPVTKSFNRGEC
heavy: not shown
notes: Anti-PD-1 IgG4 (JS001) with the anti-VEGF VHH at the C-terminus of each heavy chain; also called Antibody 24; antibody 24 (IgG4)
B3: Bispecific antibody molecule 27 (bispecific antibody, human IgG4 S228P, kappa)
light: DVVMTQSPLSLPVTLGQPASISCRSSQSIVHSNGNTYLEWYLQKPGQSPQLLIYKVSNRFSGVPDRFSGSGSGTDFTLKISRVEAEDVGVYYCFQGSHVPLTFGQGTKLEIKRTVAAPSVFIFPPSDEQLKSGTASVVCLLNNFYPREAKVQWKVDNALQSGNSQESVTEQDSKDSTYSLSSTLTLSKADYEKHKVYACEVTHQGLSSPVTKSFNRGEC
heavy: not shown
notes: Anti-PD-1 IgG4 (JS001) with the anti-VEGF VHH inserted between CH1 and the hinge of each heavy chain; also called Antibody 27; antibody 27 (IgG4)
B4: JS001 (recombinant humanized anti-PD-1 monoclonal antibody reference article, Toripalimab) (antibody, human IgG4 S228P, kappa, V domains shown)
VH: QGQLVQSGAEVKKPGASVKVSCKASGYTFTDYEMHWVRQAPIHGLEWIGVIESETGGTAYNQKFKGRVTITADKSTSTAYMELSSLRSEDTAVYYCAREGITTVATTYYWYFDVWGQGTTVTVSS
VL: DVVMTQSPLSLPVTLGQPASISCRSSQSIVHSNGNTYLEWYLQKPGQSPQLLIYKVSNRFSGVPDRFSGSGSGTDFTLKISRVEAEDVGVYYCFQGSHVPLTFGQGTKLEIKR
notes: also called TAB001; anti-PD-1 monoclonal antibody JS001

Legend:
[1] = biological target: T1, Recombinant human PD-1 (prepared by Suzhou Junmeng Biopharm Co., Ltd. according to the sequence of NCBI … (human, UniProt Q15116 25-170, limits assumed)); test: competitive ELISA, PD-1 coated, competitor Biotin-PD-L1 hFc at 4.0 µg/mL (FIG. 9a)
T1 construct: Soluble recombinant protein used in BLI and coated in ELISA; also called antigen PD-1

[2] = biological target: T2, Recombinant human VEGFA (Sino Biological, catalog number 11066-HNAB) (human); test: indirect ELISA on coated human VEGF; sample in human serum, 37°C, 4 week
T2 construct: also called VEGF antigen; Human/Cynomolgus VEGF/VEGFA/VEGF165 Protein
T2 chain: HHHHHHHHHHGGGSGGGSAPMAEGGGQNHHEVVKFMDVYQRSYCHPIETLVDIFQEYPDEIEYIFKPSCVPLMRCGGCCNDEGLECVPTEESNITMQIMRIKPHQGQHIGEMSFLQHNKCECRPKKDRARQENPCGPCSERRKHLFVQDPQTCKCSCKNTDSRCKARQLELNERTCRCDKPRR

[3] = biological target: T2, Recombinant human VEGFA (Sino …); test: indirect ELISA on coated human VEGF; sample in human serum, 37°C, 2 week
[4] = biological target: T1, Recombinant human PD-1 (prepared by …); test: indirect ELISA on coated human PD-1, relative to TAB001 (JS001) control
[5] = biological target: T2, Recombinant human VEGFA (Sino …); test: competitive ELISA against VEGFR2 on coated VEGFA, relative to Avastin control
[6] = biological target: T2, Recombinant human VEGFA (Sino …); test: indirect ELISA on coated human VEGF; stability sample, 5°C, 0 week
[7] = biological target: T1, Recombinant human PD-1 (prepared by …); test: BLI (Octet RED96e), antibody captured at 5 µg/mL, PD-1 at 210 and 70 nM
[8] = biological target: T1, Recombinant human PD-1 (prepared by …); test: indirect ELISA on coated human PD-1; stability sample, 5°C, 4 week
[9] = biological target: T1, Recombinant human PD-1 (prepared by …); test: indirect ELISA on coated human PD-1; sample in human serum, 37°C, 4 week
[10] = biological target: T2, Recombinant human VEGFA (Sino …); test: BLI (Octet RED96e), told of the group
[11] = biological target: T1, Recombinant human PD-1 (prepared by …); test: indirect ELISA on coated human PD-1; sample in human serum, 37°C, 2 week
[12] = biological target: T2, Recombinant human VEGFA (Sino …); test: cell-based or functional assay
[13] = biological target: Human PD-1 on the cell surface (Jurkat PD-1 effector cells, Promega); CD4 T cells in the mixed lymphocyte … (human, UniProt Q15116 25-288); test: cell-based or functional assay
[14] = biological target: T2, Recombinant human VEGFA (Sino …); test: indirect ELISA on coated human VEGF; stability sample, 5°C, 4 week
[15] = biological target: T2, Recombinant human VEGFA (Sino …); test: indirect ELISA on coated human VEGF; sample in human serum, 37°C, 0 week
[16] = biological target: T1, Recombinant human PD-1 (prepared by …); test: indirect ELISA on coated human PD-1; sample in human serum, 37°C, 0 week
[17] = biological target: T2, Recombinant human VEGFA (Sino …); test: indirect ELISA on coated human VEGFA, relative to Avastin control
[18] = biological target: T2, Recombinant human VEGFA (Sino …); test: competitive ELISA, VEGFA coated, competitor biotinylated VEGFR2 at 0.3 µg/mL (FIG. 8a)
[19] = biological target: T2, Recombinant human VEGFA (Sino …); test: BLI (Octet RED96e), antibody captured at 5 µg/mL, VEGFA at 50 and 25 nM
[20] = biological target: T2, Recombinant human VEGFA (Sino …); test: indirect ELISA on coated human VEGF; stability sample, 5°C, 2 week
[21] = biological target: T1, Recombinant human PD-1 (prepared by …); test: indirect ELISA, human PD-1 coated at 0.3 µg/mL (FIG. 6a)
[22] = biological target: T1, Recombinant human PD-1 (prepared by …); test: competitive ELISA against PD-L1 hFc on coated PD-1, relative to TAB001 (JS001) control
[23] = biological target: T2, Recombinant human VEGFA (Sino …); test: indirect ELISA, human VEGFA coated at 0.5 µg/mL (FIG. 7a)
[24] = biological target: T1, Recombinant human PD-1 (prepared by …); test: indirect ELISA on coated human PD-1; stability sample, 5°C, 0 week
[25] = biological target: T1, Recombinant human PD-1 (prepared by …); test: competitive ELISA, PD-1 coated, competitor Biotin-PD-L1 hFc at 4.0 µg/mL (FIG. 9b)
[26] = biological target: T1, Recombinant human PD-1 (prepared by …); test: indirect ELISA, human PD-1 coated at 0.3 µg/mL (FIG. 6b)
[27] = biological target: T2, Recombinant human VEGFA (Sino …); test: competitive ELISA, VEGFA coated, competitor biotinylated VEGFR2 at 0.3 µg/mL (FIG. 8b)
[28] = biological target: T2, Recombinant human VEGFA (Sino …); test: indirect ELISA, human VEGFA coated at 0.5 µg/mL (FIG. 7b)

Row | Binder | IC50 [1] [nM] | Binding activity (%), VEGF end [2] [%] | Binding activity (%), VEGF end [3] [%] | Relative binding activity (%) [4] [%] | Relative binding activity (%) [5] [%] | Binding activity (%), VEGF end [6] [%] | Kd [7] [nM] | koff [7] [s⁻¹] | kon [7] [M⁻¹ s⁻¹] | Binding activity (%), PD-1 end [8] [%] | Binding activity (%), PD-1 end [9] [%] | Kd [10] [nM] | Binding activity (%), PD-1 end [11] [%] | IC50, VEGFA-induced proliferation of HUVEC cells [12] [nM] | EC50, PD-1/PD-L1 luciferase reporter gene system (Jurkat PD-1 / CHO PD-L1) [13] [nM] | Binding activity (%), VEGF end [14] [%] | Binding activity (%), VEGF end [15] [%] | Binding activity (%), PD-1 end [16] [%] | Relative binding activity (%) [17] [%] | Kd [19] [nM] | further results
1 | B1 | 293 | 79 | 96 | 52 | 97 | 99 | 1.73 | 7.73e-05 | 44800 | 97 | 82 | < 0.5 | 95 | 81.1 | 11.9 | 81 | 98 | 121 | 175 | < 0.0186 | IC50 [18]: 679 nM; koff [19]: < 1e-05 s⁻¹; kon [19]: 538000 M⁻¹ s⁻¹; Binding activity (%), VEGF end [20]: 104%; EC50 [21]: 6.93 nM; Relative binding activity (%) [22]: 46%; EC50 [23]: 2.05 nM; Binding activity (%), PD-1 end [24]: 105%
2 | B2 | 243 | 95 | 81 | 25 | 61 | 100 | 1.21 | 9.38e-05 | 77600 | 86 | 89 | < 0.5 | 63 | 88 | 8.17 | 102 | 104 | 106 | 27 | 0.191 | IC50 [18]: 1080 nM; koff [19]: 7.92e-05 s⁻¹; kon [19]: 414000 M⁻¹ s⁻¹; Binding activity (%), VEGF end [20]: 85%; EC50 [21]: 14.6 nM; Relative binding activity (%) [22]: 55%; EC50 [23]: 13.2 nM; Binding activity (%), PD-1 end [24]: 94%
3 | B3 |  | 78 | 86 | 77 | 85 | 97 | 0.864 | 5.57e-05 | 64400 | 107 | 83 | < 0.5 | 86 | 104 | 16.9 | 104 | 101 | 93 | 53 | 0.0521 | IC50 [25]: 297 nM; EC50 [26]: 23.8 nM; IC50 [27]: 3560 nM; EC50 [28]: 6.62 nM; koff [19]: 4.24e-05 s⁻¹; kon [19]: 815000 M⁻¹ s⁻¹; Binding activity (%), VEGF end [20]: 92%; Relative binding activity (%) [22]: 86%; Binding activity (%), PD-1 end [24]: 95%
4 | B4 | 135 |  |  |  |  |  | 0.584 | 3.93e-05 | 67300 |  |  |  |  |  |  |  |  |  |  |  | IC50 [25]: 255 nM; EC50 [26]: 18.3 nM; EC50 [21]: 3.6 nM
